This note sets out measurements from paper doi:10.1101/2024.11.20.624486.

For orientation: Kd means the equilibrium constant for the complex coming apart. Read a low Kd as a tighter complex.

In the test the target is GST-HktR (Pseudomonas syringae pv. actinidiae M228). Put plainly: MST.

For RpoD-His6 (natural protein), the Kd came to 1790 nM. This counts as single-digit micromolar.
